In PMC7943762, “Bmp8a is an essential positive regulator of antiviral immunity in zebrafish”:

B1: P2 GAS probe (dsDNA)
DNA 1: TTCAATTTACTAGAACTTCTC
DNA 2: GAGAAGTTCTAGTAAATTGAA
B2: P1 GAS probe (dsDNA)
DNA 1: AGACCATTCCGGGAAAACCAA
DNA 2: TTGGTTTTCCCGGAATGGTCT
B3: P2 mutant probe (dsDNA)
DNA 1: TTCAATGCACTAGGCCTTCTC
DNA 2: GAGAAGGCCTAGTGCATTGAA
B4: P1 mutant probe (dsDNA)
DNA 1: AGACCAGCCCGGGGCAACCAA
DNA 2: TTGGTTGCCCCGGGCTGGTCT

What was measured:
[1] = target: T1, rStat1a (Danio rerio (zebrafish), UniProt O93598 1-749); test: EMSA; poly(dI-dC); anti-His supershift; unlabeled probe competes; Beyotime GS009 EMSA/Gel-Shift binding buffer with poly(dI-dC), 25 C, 25 min preincubation then 30 min with 0.5 uM biotin probe (competitor stated as 0.5 uM), native 6% PAGE; salt and pH not stated; conditions: protein: recombinant; tags: His (pET-28a; Ni-NTA, anti-His); chain copies: 2; label: biotin on both strands (5'); blunt
T1 sequence: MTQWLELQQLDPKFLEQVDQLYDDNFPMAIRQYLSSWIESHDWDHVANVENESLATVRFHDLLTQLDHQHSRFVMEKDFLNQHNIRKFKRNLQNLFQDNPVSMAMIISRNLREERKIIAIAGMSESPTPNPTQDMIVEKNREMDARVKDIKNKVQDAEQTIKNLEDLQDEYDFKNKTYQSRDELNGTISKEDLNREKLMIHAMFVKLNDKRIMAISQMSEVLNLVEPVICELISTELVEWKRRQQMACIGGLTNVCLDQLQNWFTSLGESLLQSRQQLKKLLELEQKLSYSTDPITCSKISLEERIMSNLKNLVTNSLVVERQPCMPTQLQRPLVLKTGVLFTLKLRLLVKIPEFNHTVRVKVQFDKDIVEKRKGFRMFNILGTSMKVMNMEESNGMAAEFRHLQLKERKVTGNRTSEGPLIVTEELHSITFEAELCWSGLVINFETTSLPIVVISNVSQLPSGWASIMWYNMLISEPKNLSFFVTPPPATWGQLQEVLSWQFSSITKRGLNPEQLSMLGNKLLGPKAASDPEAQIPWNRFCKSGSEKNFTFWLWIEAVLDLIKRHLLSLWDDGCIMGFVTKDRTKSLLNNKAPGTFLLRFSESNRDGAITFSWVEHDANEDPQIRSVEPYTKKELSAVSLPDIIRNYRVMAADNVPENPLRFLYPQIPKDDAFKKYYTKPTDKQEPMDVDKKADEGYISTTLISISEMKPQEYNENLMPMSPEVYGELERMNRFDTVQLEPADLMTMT

[2] = target: T2, rStat1b (Danio rerio (zebrafish), UniProt B0S789 1-725); test: as above; conditions: protein: recombinant; tags: His (pET-28a; Ni-NTA, anti-His); chain copies: 2; label: biotin on both strands (5'); blunt
T2 sequence: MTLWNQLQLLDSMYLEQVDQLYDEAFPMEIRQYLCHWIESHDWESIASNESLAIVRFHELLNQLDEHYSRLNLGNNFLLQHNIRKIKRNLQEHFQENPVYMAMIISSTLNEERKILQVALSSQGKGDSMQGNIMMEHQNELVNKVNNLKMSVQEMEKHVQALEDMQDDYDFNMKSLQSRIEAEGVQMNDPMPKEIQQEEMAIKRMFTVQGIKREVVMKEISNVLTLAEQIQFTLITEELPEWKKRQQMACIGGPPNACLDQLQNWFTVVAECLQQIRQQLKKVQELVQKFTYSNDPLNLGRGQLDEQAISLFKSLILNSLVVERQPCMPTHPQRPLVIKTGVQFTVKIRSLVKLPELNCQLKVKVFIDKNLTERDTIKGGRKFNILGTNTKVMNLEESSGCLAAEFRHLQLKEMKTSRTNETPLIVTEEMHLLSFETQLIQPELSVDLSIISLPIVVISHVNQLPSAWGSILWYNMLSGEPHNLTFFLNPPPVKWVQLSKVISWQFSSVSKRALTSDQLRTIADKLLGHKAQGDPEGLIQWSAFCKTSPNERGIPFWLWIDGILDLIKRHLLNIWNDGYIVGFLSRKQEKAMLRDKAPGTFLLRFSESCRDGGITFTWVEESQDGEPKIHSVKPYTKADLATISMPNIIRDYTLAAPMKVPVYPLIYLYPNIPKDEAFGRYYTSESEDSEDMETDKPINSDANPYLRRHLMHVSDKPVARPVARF

[3] = target: T1, rStat1a; test: competition; unlabeled competitor vs biotin P2 probe; little change; Beyotime GS009 EMSA/Gel-Shift binding buffer with poly(dI-dC), 25 C, 25 min preincubation then 30 min with 0.5 uM biotin probe (competitor stated as 0.5 uM), native 6% PAGE; salt and pH not stated; conditions: protein: recombinant; tags: His (pET-28a; Ni-NTA, anti-His); chain copies: 2; blunt
[4] = target: T2, rStat1b; test: as above; conditions: protein: recombinant; tags: His (pET-28a; Ni-NTA, anti-His); chain copies: 2; blunt
[5] = target: T1, rStat1a; test: competition; unlabeled competitor vs biotin P1 probe; little change; Beyotime GS009 EMSA/Gel-Shift binding buffer with poly(dI-dC), 25 C, 25 min preincubation then 30 min with 0.5 uM biotin probe (competitor stated as 0.5 uM), native 6% PAGE; salt and pH not stated; conditions: protein: recombinant; tags: His (pET-28a; Ni-NTA, anti-His); chain copies: 2; blunt
[6] = target: T2, rStat1b; test: as above; conditions: protein: recombinant; tags: His (pET-28a; Ni-NTA, anti-His); chain copies: 2; blunt

Binder | binding result [1] | binding result [2] | also measured
B1 | binds | binds | –
B2 | binds | binds | –
B3 | – | – | binding result [3]: no binding; binding result [4]: no binding
B4 | – | – | binding result [5]: no binding; binding result [6]: no binding
